How the values were obtained:
DmSas4 = assay: co-IP, immunoblot; conditions: reference: WT Ana2, no DmPLK4SBM-mCherry; sites S38
[1] = molecular target: CPAP TCP domain, 1142-1338 (UniProt Q9HC77); assay: GST pull-down, immunoblot; conditions: sites S428
CPAP [2] = molecular target: CPAP (UniProt Q9HC77); assay: immunofluorescence co-localisation at GFP-STIL/PLK4 foci; conditions: reference: WT Myc-GFP-STIL; sites S428
CPAP [3] = molecular target: CPAP (UniProt Q9HC77); assay: GFP-binding-protein co-IP, immunoblot; conditions: sites S428
[4] = molecular target: T1, Recombinant full-length GST-STIL S428A phosphorylated in vitro by the His-PLK4 kinase domain (human, UniProt Q15468 1-1287, S428A, phosphorylated at multiple sites by the 6xHis-PLK4 kinase domain (not at 428)); assay: pull-down; GST-hSTIL bound to GSH resin, incubated with 6xHis-hPlk4 (a.a. 1–416) with or without 10 µM ATP at 33°C for two hours, then with Flag-CPAP TCP domain for 2 hr at 4°C in 50 mM Na-HEPES pH 7.5, 400 mM NaCl, 2 mM MgCl2, 1 mM EGTA, 1 mM DTT, 0.15% Triton-X 100, 0.5 mg/ml BSA; immunoblot; conditions: both partners purified
T1 construct: STIL, human, full length; also called S428A GST-STIL; source: SF9 insect cells (Bac-to-Bac), purified (Glutathione Sepharose); phosphorylated on beads by 6xHis-hPlk4 (a.a. 1–416) with ATP; not shown: GST, N-terminal, kept
T1 sequence (looked up): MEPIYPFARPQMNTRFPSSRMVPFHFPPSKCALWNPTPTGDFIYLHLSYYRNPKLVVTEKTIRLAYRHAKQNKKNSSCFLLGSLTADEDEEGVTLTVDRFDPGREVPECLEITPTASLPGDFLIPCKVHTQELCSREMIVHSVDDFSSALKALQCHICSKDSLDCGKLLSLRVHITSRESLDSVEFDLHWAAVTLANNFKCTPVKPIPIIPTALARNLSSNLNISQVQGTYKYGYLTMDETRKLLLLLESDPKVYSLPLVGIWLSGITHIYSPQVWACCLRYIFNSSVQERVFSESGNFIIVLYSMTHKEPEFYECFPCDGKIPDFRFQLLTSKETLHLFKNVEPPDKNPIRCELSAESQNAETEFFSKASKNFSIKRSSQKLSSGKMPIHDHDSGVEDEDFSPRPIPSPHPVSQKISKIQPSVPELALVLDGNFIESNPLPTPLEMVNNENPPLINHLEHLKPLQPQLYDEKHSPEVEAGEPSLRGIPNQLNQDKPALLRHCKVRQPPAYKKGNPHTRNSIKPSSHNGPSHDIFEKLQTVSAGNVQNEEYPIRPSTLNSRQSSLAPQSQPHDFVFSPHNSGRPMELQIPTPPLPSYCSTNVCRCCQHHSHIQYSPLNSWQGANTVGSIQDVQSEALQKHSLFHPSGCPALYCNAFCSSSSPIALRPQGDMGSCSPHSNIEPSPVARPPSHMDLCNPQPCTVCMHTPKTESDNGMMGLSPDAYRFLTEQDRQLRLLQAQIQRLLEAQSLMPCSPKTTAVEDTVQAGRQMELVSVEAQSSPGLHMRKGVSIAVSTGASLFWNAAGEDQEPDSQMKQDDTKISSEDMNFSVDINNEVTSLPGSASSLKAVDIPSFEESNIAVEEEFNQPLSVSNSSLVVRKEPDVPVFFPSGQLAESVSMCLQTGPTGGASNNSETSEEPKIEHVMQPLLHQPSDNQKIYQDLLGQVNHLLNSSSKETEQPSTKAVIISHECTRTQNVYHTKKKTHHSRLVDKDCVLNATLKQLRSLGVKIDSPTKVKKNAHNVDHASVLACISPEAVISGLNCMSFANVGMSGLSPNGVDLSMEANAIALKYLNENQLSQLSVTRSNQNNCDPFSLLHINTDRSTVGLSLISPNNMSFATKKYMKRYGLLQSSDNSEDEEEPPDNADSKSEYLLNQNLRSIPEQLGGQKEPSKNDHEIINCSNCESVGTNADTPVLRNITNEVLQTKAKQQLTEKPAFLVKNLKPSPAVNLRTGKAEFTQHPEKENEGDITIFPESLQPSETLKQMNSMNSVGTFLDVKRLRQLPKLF

[5] = molecular target: T2, Recombinant full-length GST-STIL S428A, not phosphorylated (human, UniProt Q15468 1-1287, S428A); assay: as above; conditions: both partners purified
T2 construct: STIL, human, full length; also called S428A GST-STIL; source: SF9 insect cells (Bac-to-Bac), purified (Glutathione Sepharose); incubated with 6xHis-hPlk4 (a.a. 1–416) without ATP; not shown: GST, N-terminal, kept
T2 sequence (looked up): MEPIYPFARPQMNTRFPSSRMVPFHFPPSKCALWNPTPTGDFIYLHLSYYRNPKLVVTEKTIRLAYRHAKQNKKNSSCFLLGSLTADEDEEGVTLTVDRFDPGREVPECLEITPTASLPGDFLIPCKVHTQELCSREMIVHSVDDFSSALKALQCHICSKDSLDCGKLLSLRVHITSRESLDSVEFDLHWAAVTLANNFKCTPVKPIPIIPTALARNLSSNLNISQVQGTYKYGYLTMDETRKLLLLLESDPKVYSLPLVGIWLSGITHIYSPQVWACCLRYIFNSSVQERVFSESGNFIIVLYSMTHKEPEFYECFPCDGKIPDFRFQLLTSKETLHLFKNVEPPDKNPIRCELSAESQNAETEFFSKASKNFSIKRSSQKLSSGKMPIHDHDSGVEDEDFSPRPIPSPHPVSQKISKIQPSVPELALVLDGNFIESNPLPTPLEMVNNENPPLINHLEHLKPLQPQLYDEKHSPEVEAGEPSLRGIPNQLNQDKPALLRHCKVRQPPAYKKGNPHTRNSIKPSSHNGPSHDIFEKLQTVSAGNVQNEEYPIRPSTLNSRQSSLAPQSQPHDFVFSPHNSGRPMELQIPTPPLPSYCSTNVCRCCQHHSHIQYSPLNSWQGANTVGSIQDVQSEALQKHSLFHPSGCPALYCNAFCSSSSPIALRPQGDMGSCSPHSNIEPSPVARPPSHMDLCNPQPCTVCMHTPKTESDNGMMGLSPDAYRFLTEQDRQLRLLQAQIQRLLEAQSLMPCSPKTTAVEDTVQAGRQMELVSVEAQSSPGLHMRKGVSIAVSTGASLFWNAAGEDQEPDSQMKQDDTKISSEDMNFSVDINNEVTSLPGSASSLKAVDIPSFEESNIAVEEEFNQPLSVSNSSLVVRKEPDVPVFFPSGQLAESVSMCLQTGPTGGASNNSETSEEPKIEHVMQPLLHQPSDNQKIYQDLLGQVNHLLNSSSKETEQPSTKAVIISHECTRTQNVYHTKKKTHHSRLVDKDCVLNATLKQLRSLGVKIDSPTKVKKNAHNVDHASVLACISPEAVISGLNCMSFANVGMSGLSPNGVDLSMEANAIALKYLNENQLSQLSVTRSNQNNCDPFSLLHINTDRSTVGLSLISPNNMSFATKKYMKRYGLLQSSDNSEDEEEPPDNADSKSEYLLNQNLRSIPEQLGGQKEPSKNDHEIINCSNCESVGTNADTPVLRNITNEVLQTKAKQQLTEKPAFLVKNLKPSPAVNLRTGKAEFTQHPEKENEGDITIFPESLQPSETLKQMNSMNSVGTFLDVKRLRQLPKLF

[6] = molecular target: T3, Recombinant full-length GST-STIL (WT) phosphorylated in vitro by the His-PLK4 kinase domain (human, UniProt Q15468 1-1287, phosphoserine at 428 and phosphorylation at multiple other sites (84 in vitro phosphorylation sites identified on STIL), by the 6xHis-PLK4 kinase domain); assay: as above; conditions: both partners purified
T3 construct: STIL, human, full length; also called GST-hSTIL; phosphorylated WT GST-STIL; source: SF9 insect cells (Bac-to-Bac), purified (Glutathione Sepharose); phosphorylated on beads by 6xHis-hPlk4 (a.a. 1–416) with ATP; not shown: GST, N-terminal, kept
T3 sequence (looked up): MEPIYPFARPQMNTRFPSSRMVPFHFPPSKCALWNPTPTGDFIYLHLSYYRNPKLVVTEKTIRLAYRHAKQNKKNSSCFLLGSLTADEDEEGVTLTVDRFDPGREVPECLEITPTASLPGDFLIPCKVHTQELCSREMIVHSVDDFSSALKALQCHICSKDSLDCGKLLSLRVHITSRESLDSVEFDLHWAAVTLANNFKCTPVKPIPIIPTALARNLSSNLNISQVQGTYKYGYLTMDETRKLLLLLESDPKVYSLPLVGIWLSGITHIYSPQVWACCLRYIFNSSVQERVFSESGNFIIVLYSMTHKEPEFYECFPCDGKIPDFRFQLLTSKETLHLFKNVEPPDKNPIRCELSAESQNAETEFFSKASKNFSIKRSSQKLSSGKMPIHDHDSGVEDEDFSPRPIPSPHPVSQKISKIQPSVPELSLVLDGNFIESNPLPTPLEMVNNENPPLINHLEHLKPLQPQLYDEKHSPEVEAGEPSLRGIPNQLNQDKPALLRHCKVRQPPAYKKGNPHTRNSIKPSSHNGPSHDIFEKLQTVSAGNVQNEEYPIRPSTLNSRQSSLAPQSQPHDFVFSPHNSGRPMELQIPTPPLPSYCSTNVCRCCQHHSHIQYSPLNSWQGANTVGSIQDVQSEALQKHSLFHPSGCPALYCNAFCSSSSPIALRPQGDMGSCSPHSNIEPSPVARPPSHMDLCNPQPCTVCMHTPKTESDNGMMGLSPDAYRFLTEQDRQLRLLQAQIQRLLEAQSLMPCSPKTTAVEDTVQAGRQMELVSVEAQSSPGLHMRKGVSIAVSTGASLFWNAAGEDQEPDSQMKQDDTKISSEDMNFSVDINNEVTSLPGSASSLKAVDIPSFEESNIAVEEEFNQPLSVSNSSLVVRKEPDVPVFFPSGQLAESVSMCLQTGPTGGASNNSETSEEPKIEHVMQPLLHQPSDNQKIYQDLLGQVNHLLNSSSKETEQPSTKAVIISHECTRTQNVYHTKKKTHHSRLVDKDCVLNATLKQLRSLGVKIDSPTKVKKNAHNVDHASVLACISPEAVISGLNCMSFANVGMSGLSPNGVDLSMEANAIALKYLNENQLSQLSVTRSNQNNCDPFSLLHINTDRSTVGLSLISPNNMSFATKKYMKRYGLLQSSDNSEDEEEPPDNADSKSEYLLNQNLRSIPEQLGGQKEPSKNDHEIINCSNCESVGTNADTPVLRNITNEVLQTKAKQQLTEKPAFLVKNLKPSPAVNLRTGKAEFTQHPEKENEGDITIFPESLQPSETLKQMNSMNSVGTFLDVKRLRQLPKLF

Molecule: Ana2 WT Ana2 + DmPLK4SBM-mCherry
- fold change (DmSas4): > 6

Molecule: STIL (from UniProt Q15468) GST-STIL S428A, PLK4 + ATP
- binding against the reference ([1]; reference: WT GST-STIL, PLK4 + ATP): weaker

Molecule: STIL (from UniProt Q15468) Myc-GFP-STIL S428A
- other: percent reduction of CPAP at foci (CPAP [2]): > 90%

Molecule: STIL (from UniProt Q15468) STIL S428A + kinase-active PLK4∆24-mCherry
- binding against the reference (CPAP [3]; reference: WT STIL + kinase-active PLK4∆24-mCherry): weaker

Molecule: STIL (from UniProt Q15468) WT GST-STIL + His-PLK4 kinase domain + ATP
- fold change ([1]; reference: WT GST-STIL + His-PLK4 kinase domain, no ATP): 2.5

Molecule: STIL (from UniProt Q15468) WT STIL + kinase-active PLK4∆24-mCherry
- fold change (CPAP [3]; reference: WT STIL + kinase-dead PLK4∆24-mCherry): > 7

B1: Flag-CPAP TCP domain (aa 1142–1338) (domain or fragment, human, UniProt Q9HC77 1142-1338, looked up)
chain: EEEEDQDIQGEISHPDGKVEKVYKNGCRVILFPNGTRKEVSADGKTITVTFFNGDVKQVMPDQRVIYYYAAAQTTHTTYPEGLEVLHFSSGQIEKHYPDGRKEITFPDQTVKNLFPDGQEESIFPDGTIVRVQRDGNKLIEFNNGQRELHTAQFKRREYPDGTVKTVYANGHQETKYRSGRIRVKDKEGNVLMDTEL
notes: CPAP (CENPJ), human, TCP domain, residues 1142–1338; Expressed as GST-Flag-CPAP TCP; also called Flag-TCP domain; Flag-TCP; source: E. coli Rosetta (DE3), purified; not shown: FLAG, N-terminal, kept
- binding result [4]: binds
- binding result [5]: binds
- fold increase in binding, phosphorylated against unphosphorylated GST-STIL [6]: ~2.5 fold
